In patent US20200317816A1 (Novartis, published 2020):

B1: anti-FXI/FXIa antibody NOV1401 (antibody, human IgG1, lambda, V domains shown)
VH: QVQLLESGGGLVQPGGSLRLSCAASGFTFSTAAMSWVRQAPGKGLEWVSGISGSGSSTYYADSVKGRFTISRDNSKNTLYLQMNSLRAEDTAVYYCARELSYLYSGYYFDYWGQGTLVTVSS
VL: QSVLTQPPSASGTPGQRVTISCSGSSSNIGSNDVSWYQQLPGTAPKLLIYKNYNRPSGVPDRFSGSKSGTSASLAISGLQSEDEADYYCSAWDQRQFDVVFGGGTKLTVLG

Assays:
[1] = target: B1; assay: cell-based or functional assay
[2] = target: B1; assay: cell-based or functional assay; remark: listed apart in the source
[3] = target: B1; assay: SPR (ProteOn XPR36), NOV1401 amine-coupled on the chip, Fab as analyte 0.125-4 nM, Langmuir 1:1 fit, 25 C; average of n=2
Experimental: SPR binding experiments were performed on a ProteOn XPR36 instrument (Bio-Rad Laboratories, Inc.) in PBS/T buffer (50 mM phosphate, 150 mM NaCl, pH 7.4, 0.005% v/v Tween-20) at 25° C. […] Unreacted groups were blocked by injecting 1 M ethanolamine.
Blank surfaces were used for background corrections. There was no need to regenerate surfaces since the ProteOn protein interaction array system allows to run up to six binding experiments on an identical surface in parallel.
Data processing and analysis including kon, koff, and KD determination were performed with the ProteOn Manager™ software version 3.1.0.6. Sensorgrams were fitted by applying a Langmuir 1:1 binding model (Rmax set at global) and dissociation constants were calculated from kon and koff.

[4] = target: B1; assay: solution equilibrium titration (SET), constant Fab with NOV1401 titrated in solution, free Fab captured on biotinylated NOV1401, 1:1 fit; average of n=2
Experimental: (§1) After washing the plate again three times, 30 μl of detection reagent (LumiGLO Peroxidase Chemiluminescent Substrate, KPL#54-61-01) was added to each well. Electrochemiluminescence (ECL) signals were generated and detected immediately with a luminescence imager (SpectraMax M5, Molecular Devices, LLC).
(§2) Average ECL-signals were calculated from duplicate measurements within each assay. Data were baseline adjusted by subtracting the lowest value from all data points and plotted against the corresponding antigen concentration.

[5] = target: B1; assay: Solution equilibrium titration (SET): constant Fab, NOV1401 titrated in solution, free Fab captured on biotinylated NOV1401, luminescence (RLU) read, 1:1 fit
Experimental: as §1, §2

[6] = target: B1; assay: solution equilibrium titration (SET), constant Fab with NOV1401 titrated in solution, free Fab captured on biotinylated NOV1401, 1:1 fit; average of n=3
Experimental: as §1, §2

[7] = target: Human FXI in normal human plasma (human, UniProt P03951 19-625); assay: cell-based or functional assay
Human FXI in normal human plasma, sequence (P03951 19-625 C226S limits assumed): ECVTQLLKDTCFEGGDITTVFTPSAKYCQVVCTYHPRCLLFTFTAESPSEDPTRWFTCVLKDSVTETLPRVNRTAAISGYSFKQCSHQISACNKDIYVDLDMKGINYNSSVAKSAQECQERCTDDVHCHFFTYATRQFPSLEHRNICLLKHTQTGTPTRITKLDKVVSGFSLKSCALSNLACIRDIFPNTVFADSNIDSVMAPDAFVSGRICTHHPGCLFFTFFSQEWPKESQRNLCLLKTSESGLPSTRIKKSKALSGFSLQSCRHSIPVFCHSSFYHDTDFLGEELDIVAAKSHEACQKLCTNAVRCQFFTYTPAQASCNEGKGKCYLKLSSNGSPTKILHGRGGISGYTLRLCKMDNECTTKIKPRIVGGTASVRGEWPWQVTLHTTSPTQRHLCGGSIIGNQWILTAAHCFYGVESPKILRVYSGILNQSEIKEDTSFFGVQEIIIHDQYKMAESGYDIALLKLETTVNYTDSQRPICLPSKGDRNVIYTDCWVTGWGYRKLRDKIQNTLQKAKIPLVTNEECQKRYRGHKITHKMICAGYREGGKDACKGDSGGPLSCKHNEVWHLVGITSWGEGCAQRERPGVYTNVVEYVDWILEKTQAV

| percentage reversal of NOV1401 aPTT prolongation, NOV1401/anti NOV1401 ratio 1/1 (n/n) [1] [%] | percentage reversal of NOV1401 aPTT prolongation, NOV1401/anti NOV1401 ratio 1/3 (n/n) [1] [%] | percentage reversal of NOV1401 aPTT prolongation, NOV1401/anti NOV1401 ratio 1/10 (n/n) [1] [%] | percentage reversal of the NOV1401 effect on thrombin generation (TGA), NOV1401/anti NOV1401 ratio 1/1 (n/n) [2] [%] | percentage reversal of the NOV1401 effect on thrombin generation (TGA), NOV1401/anti NOV1401 ratio 1/3 (n/n) [2] [%] | percentage reversal of the NOV1401 effect on thrombin generation (TGA), NOV1401/anti NOV1401 ratio 1/10 (n/n) [2] [%] | Kd [3] [nM] | Kd [4] [nM] | Kd [5] [nM] | Kd [6] [nM] | IC50 of NOV1401 for reduction of peak thrombin in the TGA in human plasma [7] [nM] | Binder |
| --- | --- | --- | --- | --- | --- | --- | --- | --- | --- | --- | --- |
| 9 | 35 | 58 | 31 | 47 | 67 | 0.24 | 0.1 | – | – | – | IDT3 anti-NOV1401 Fab (Fab, V domains shown, Human Fab; The heavy chain entry is VH-CH1 (Fd); also called antidote) VH: QVQLVESGGGLVKPGGSLRLSCAASGFTFQSAAVHWVRQAPGKGLEWVGRIKSKADGGTTDYAAPVKGRFTISRDDSKNTLYLQMNSLKTEDTAVYYCARDSPSISSYSIPYFSGMDVWGQGTLVTVSS VL: DIQMTQSPSSLSASVGDRVTITCRASQGIRAWLNWYQQKPGKAPKLLIYAASSLQSGVPSRFSGSGSGTDFTLTISSLQPEDFATYYCHQYITHPPTFGQGTKVEIKR |
| 10 | 25 | 46 | 41 | 61 | 72 | 1.92 | 0.68 | – | – | – | IDT9 anti-NOV1401 Fab (Fab, V domains shown, Human Fab; The heavy chain entry is VH-CH1 (Fd); also called antidote) VH: QVQLVQSGAEVKKPGASVKVSCKASGYTFTNYYVHWVRQAPGQGLEWMGWINPYNGNTNYAQKFQGRVTMTRDTSISTAYMELSRLRSEDTAVYYCARGASSIRMSYYLDVWGQGTLVTVSS VL: DIQMTQSPSSLSASVGDRVTITCRASQSISNYLNWYQQKPGKAPKLLIYAASNLQSGVPSRFSGSGSGTDFTLTISSLQPEDFATYYCFQYTHSPATFGQGTKVEIKR |
| 16 | 37 | 54 | 50 | 66 | 71 | 0.33 | 0.96 | 0.16 | – | – | IDT7 anti-NOV1401 Fab (Fab, V domains shown, Human Fab; The heavy chain entry is VH-CH1 (Fd); also called antidote) VH: QVQLVESGGGLVKPGGSLRLSCAASGFTFSSNAMHWVRQAPGKGLEWVGRIKSKTDGGTTDYAAPVKGRFTISRDDSKNTLYLQMNSLKTEDTAVYYCARDHYYYPFAYWGQGTLVTVSS VL: DIQMTQSPSSLSASVGDRVTITCRASQSIRYNLAWYQQKPGKAPKLLIYAASSLQSGVPSRFSGSGSGTDFTLTISSLQPEDFATYYCHQYIAKPITFGQGTKVEIKR |
| 12 | 25 | 40 | 37 | 45 | 57 | 5.97 | 1.19 | – | – | – | IDT10 anti-NOV1401 Fab (Fab, V domains shown, Human Fab; The heavy chain entry is VH-CH1 (Fd); also called antidote) VH: QVQLVQSGAEVKKPGASVKVSCKASGYTFTNYYVHWVRQAPGQGLEWMGWINPYSGNTNYAQKFQGRVTMTRDTSISTAYMELSRLRSEDTAVYYCARGASSIRMSYYLDVWGQGTLVTVSS VL: DIQMTQSPSSLSASVGDRVTITCRASQSISNYLNWYQQKPGKAPKLLIYAASNLQSGVPSRFSGSGSGTDFTLTISSLQPEDFATYYCFQYTHSPATFGQGTKVEIKR |
| 10 | 27 | 39 | 33 | 53 | 60 | 0.31 | 0.97 | – | – | – | IDT4 anti-NOV1401 Fab (Fab, V domains shown, Human Fab; The heavy chain entry is VH-CH1 (Fd); also called antidote) VH: QVQLVESGGGLVKPGGSLRLSCAASGFTFSSAAVHWVRQAPGKGLEWVGRIKSKASGGTTDYAAPVKGRFTISRDDSKNTLYLQMNSLKTEDTAVYYCARDSPSISSYSIPYFSGMDVWGQGTLVTVSS VL: DIQMTQSPSSLSASVGDRVTITCRASQGIRAWLNWYQQKPGKAPKLLIYAASSLQSGVPSRFSGSGSGTDFTLTISSLQPEDFATYYCHQYITHPPTFGQGTKVEIKR |
| 17 | 42 | 56 | 55 | 56 | 72 | 0.35 | – | – | 0.14 | – | IDT5 anti-NOV1401 Fab (Fab, V domains shown, Human Fab; The heavy chain entry is VH-CH1 (Fd); also called antidote) VH: QVQLVESGGGLVKPGGSLRLSCAASGFTFSSAAVHWVRQAPGKGLEWVGRIKSKADAGTTDYAAPVKGRFTISRDDSKNTLYLQMNSLKTEDTAVYYCARDSPSISSYSIPYFSGMDVWGQGTLVTVSS VL: DIQMTQSPSSLSASVGDRVTITCRASQGIRAWLNWYQQKPGKAPKLLIYAASSLQSGVPSRFSGSGSGTDFTLTISSLQPEDFATYYCHQYITHPPTFGQGTKVEIKR |
| 8 | 25 | 42 | 41 | 56 | 69 | 2.15 | – | 0.96 | 0.16 | – | IDT8 anti-NOV1401 Fab (Fab, V domains shown, Human Fab; The heavy chain entry is VH-CH1 (Fd); also called antidote) VH: QVQLVESGGGLVKPGGSLRLSCAASGFTFSSNAMHWVRQAPGKGLEWVGRIKSKTSGGTTDYAAPVKGRFTISRDDSKNTLYLQMNSLKTEDTAVYYCARDHYYYPFAYWGQGTLVTVSS VL: DIQMTQSPSSLSASVGDRVTITCRASQSIRYNLAWYQQKPGKAPKLLIYAASSLQSGVPSRFSGSGSGTDFTLTISSLQPEDFATYYCHQYIAKPITFGQGTKVEIKR |
| – | – | – | – | – | – | – | – | – | – | 50 | B1 |
| 12 | 45 | 64 | 49 | 55 | 55 | 0.44 | 0.11 | – | – | – | IDT1 anti-NOV1401 Fab (Fab, V domains shown, The heavy chain entry is VH-CH1 (Fd); also called antidote) VH: QVQLLESGGGLVQPGGSLRLSCAASGFTFSDYAMSWVRQAPGKGLEWVSVIDYSSSNTYYADSVKGRFTISRDNSKNTLYLQMNSLRAEDTAVYYCAREGYSYRSIRFDYWGQGTLVTVSS VL: DIQMTQSPSSLSASVGDRVTITCRASQSISSNLNWYQQKPGKAPKLLIYAASNLQSGVPSRFSGSGSGTDFTLTISSLQPEDFATYYCLQFDHTPFTFGQGTKVEIKR |
| 9 | 22 | 38 | 18 | 41 | 37 | 10.1 | – | – | – | – | IDT6 anti-NOV1401 Fab (Fab, V domains shown, Human Fab with a lambda light chain; The heavy chain entry is VH-CH1 (Fd); also called antidote) VH: QVQLVQSGAEVKKPGESLKISCKGSGYSFTNYWIGWVRQMPGKGLEWMGIIFPGVSYTKYSPSFQGQVTISADKSISTAYLQWSSLKASDTAMYYCARGSDQTLRGSRAMDYWGQGTLVTVSS VL: QSALTQPASVSGSPGQSITISCTGTSSDVGISNYVSWYQQHPGKAPKLMIYEVSNRPSGVSNRFSGSKSGNTASLTISGLQAEDEADYYCQSYTSLNYVFGGGTKLTVLG |
